The sequences below were run on Escherichia coli TOP10 (assay: shrunken log2 fold change of peptide-encoding DNA abundance (4.5 h post-induction vs induction); higher = less antimicrobial activity (less host growth inhibition)). Settings: time post-induction: 4.5 h; library: site-saturation at positions 5, 18, 19, 20.
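Note: peptides expressed intracellularly from a pBAD plasmid library in pooled LB shake-flask culture, induced with 0.3% L-arabinose, DNA abundance read by NGS, three biological replicates, DESeq2 with apeglm shrinkage.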

| Sequence | shrunken log2 fold change |
| --- | --- |
| RRIRIRPPRLPRPRPRPNPYPRP | -0.659 |
| RRIRVRPPRLPRPRPRPRSWPRP | 0.325 |
| RRIRGRPPRLPRPRPRPYIYPRP | -0.13 |
| RRIRPRPPRLPRPRPRPNPFPRP | -0.382 |
| RRIRNRPPRLPRPRPRPHAMPRP | -0.316 |
| RRIRQRPPRLPRPRPRPTDEPRP | -0.131 |
| RRIRGRPPRLPRPRPRPPKGPRP | 0.673 |
| RRIRDRPPRLPRPRPRPYVMPRP | -0.342 |
| RRIRKRPPRLPRPRPRPKSCPRP | 0.00967 |
| RRIRSRPPRLPRPRPRPGIGPRP | 1.62 |
| RRIRIRPPRLPRPRPRPSYHPRP | -0.933 |
| RRIRSRPPRLPRPRPRPWEEPRP | 0.0166 |
| RRIRKRPPRLPRPRPRPCWDPRP | 0.0719 |
| RRIRHRPPRLPRPRPRPYMSPRP | -0.236 |
| RRIRSRPPRLPRPRPRPRRLPRP | 0.193 |
| RRIRYRPPRLPRPRPRPHQDPRP | -0.0582 |
| RRIRDRPPRLPRPRPRPNFAPRP | 0.605 |
| RRIRFRPPRLPRPRPRPCRQPRP | 0.229 |
| RRIRSRPPRLPRPRPRPYWNPRP | 0.503 |
| RRIRGRPPRLPRPRPRPKMKPRP | 0.723 |
| RRIRIRPPRLPRPRPRPQKRPRP | -0.143 |
| RRIRTRPPRLPRPRPRPPMRPRP | 0.957 |
| RRIRFRPPRLPRPRPRPMIIPRP | -0.871 |
| RRIRFRPPRLPRPRPRPHGNPRP | -0.414 |
| RRIRYRPPRLPRPRPRPSCMPRP | -0.947 |

| Sequence | shrunken log2 fold change |
| --- | --- |
| RRIRLRPPRLPRPRPRPLYWPRP | -0.372 |
| RRIRPRPPRLPRPRPRPQSWPRP | -0.134 |
| RRIRKRPPRLPRPRPRPTKHPRP | 0.195 |
| RRIRPRPPRLPRPRPRPAWIPRP | 0.0812 |
| RRIRIRPPRLPRPRPRPHLQPRP | -0.343 |
| RRIRGRPPRLPRPRPRPKDIPRP | -0.0187 |
| RRIRQRPPRLPRPRPRPEVFPRP | 0.0304 |
| RRIRVRPPRLPRPRPRPKCSPRP | -0.065 |
| RRIRRRPPRLPRPRPRPTRDPRP | 0.64 |
| RRIRDRPPRLPRPRPRPNSFPRP | -0.0585 |
| RRIRHRPPRLPRPRPRPYTSPRP | -0.00159 |
| RRIRQRPPRLPRPRPRPLLSPRP | 0.00947 |
| RRIRCRPPRLPRPRPRPHGTPRP | -0.0488 |
| RRIRPRPPRLPRPRPRPQVDPRP | -0.0328 |
| RRIRHRPPRLPRPRPRPWRFPRP | 0.0342 |
| RRIRCRPPRLPRPRPRPKGKPRP | 0.328 |
| RRIRDRPPRLPRPRPRPGITPRP | 0.297 |
| RRIRHRPPRLPRPRPRPQNHPRP | -0.922 |
| RRIRHRPPRLPRPRPRPGMGPRP | 0.0516 |
| RRIRIRPPRLPRPRPRPDIVPRP | -0.906 |
| RRIRDRPPRLPRPRPRPKTRPRP | 0.533 |
| RRIRTRPPRLPRPRPRPNPIPRP | -0.157 |
| RRIRHRPPRLPRPRPRPHIAPRP | -0.0808 |
| RRIRWRPPRLPRPRPRPHYRPRP | 0.0266 |
| RRIRTRPPRLPRPRPRPFQGPRP | -0.00192 |

| Sequence | shrunken log2 fold change |
| --- | --- |
| RRIRDRPPRLPRPRPRPNYPPRP | 0.0151 |
| RRIRERPPRLPRPRPRPSYSPRP | -0.147 |
| RRIRDRPPRLPRPRPRPQVGPRP | 0.132 |
| RRIRVRPPRLPRPRPRPNVPPRP | -0.345 |
| RRIRYRPPRLPRPRPRPSELPRP | -0.0343 |
| RRIRRRPPRLPRPRPRPVHVPRP | 0.0562 |
| RRIRRRPPRLPRPRPRPAVLPRP | -0.00596 |
| RRIRDRPPRLPRPRPRPRGYPRP | 0.03 |
| RRIRYRPPRLPRPRPRPTRQPRP | -0.00287 |
| RRIRCRPPRLPRPRPRPYGHPRP | -0.0546 |
| RRIRNRPPRLPRPRPRPHMGPRP | -0.133 |
| RRIRFRPPRLPRPRPRPFCNPRP | -0.196 |
| RRIRIRPPRLPRPRPRPQDAPRP | -0.449 |
| RRIRARPPRLPRPRPRPQDWPRP | 0.556 |
| RRIRDRPPRLPRPRPRPCVRPRP | -0.111 |
| RRIRMRPPRLPRPRPRPESQPRP | 2.59 |
| RRIRYRPPRLPRPRPRPDIKPRP | -0.602 |
| RRIRWRPPRLPRPRPRPCQVPRP | -0.0191 |
| RRIRERPPRLPRPRPRPEKCPRP | -0.00149 |
| RRIRWRPPRLPRPRPRPCISPRP | 0.169 |
| RRIRIRPPRLPRPRPRPSPVPRP | -0.297 |
| RRIRGRPPRLPRPRPRPPDQPRP | 1.14 |
| RRIRNRPPRLPRPRPRPYWAPRP | -0.0304 |
| RRIRKRPPRLPRPRPRPVNTPRP | -0.207 |
| RRIRVRPPRLPRPRPRPAYNPRP | -0.394 |

| Sequence | shrunken log2 fold change |
| --- | --- |
| RRIRERPPRLPRPRPRPDELPRP | -0.00377 |
| RRIRQRPPRLPRPRPRPYSDPRP | -0.028 |
| RRIRGRPPRLPRPRPRPWSYPRP | -0.157 |
| RRIRTRPPRLPRPRPRPFRMPRP | 0.0244 |
| RRIRSRPPRLPRPRPRPGDRPRP | -0.267 |
| RRIRWRPPRLPRPRPRPIQHPRP | 0.00853 |
| RRIRHRPPRLPRPRPRPWSFPRP | 0.0231 |
| RRIRRRPPRLPRPRPRPCVCPRP | 0.082 |
| RRIRMRPPRLPRPRPRPKVPPRP | 0.882 |
| RRIRKRPPRLPRPRPRPYCPPRP | 0.0231 |
| RRIRERPPRLPRPRPRPEGHPRP | 0.11 |
| RRIRERPPRLPRPRPRPFWYPRP | -0.000951 |
| RRIRPRPPRLPRPRPRPCDHPRP | -0.128 |
| RRIRYRPPRLPRPRPRPYNEPRP | -1.3 |
| RRIRNRPPRLPRPRPRPDNMPRP | -0.104 |
| RRIRARPPRLPRPRPRPIVVPRP | -0.14 |
| RRIRARPPRLPRPRPRPLPEPRP | 0.542 |
| RRIRPRPPRLPRPRPRPNFTPRP | 0.0917 |
| RRIRQRPPRLPRPRPRPVSFPRP | -0.309 |
| RRIRKRPPRLPRPRPRPKLRPRP | -0.0198 |
| RRIRKRPPRLPRPRPRPMTGPRP | 0.0188 |
| RRIRCRPPRLPRPRPRPGVCPRP | 0.117 |
| RRIRNRPPRLPRPRPRPDYDPRP | -0.0133 |
| RRIRCRPPRLPRPRPRPKQIPRP | 0.0104 |
| RRIRFRPPRLPRPRPRPGHTPRP | -0.445 |

| Sequence | shrunken log2 fold change |
| --- | --- |
| RRIRARPPRLPRPRPRPPIFPRP | 0.25 |
| RRIRWRPPRLPRPRPRPLFCPRP | 0.22 |
| RRIRPRPPRLPRPRPRPDFHPRP | -0.26 |
| RRIRWRPPRLPRPRPRPQSFPRP | -0.108 |
| RRIRDRPPRLPRPRPRPPPYPRP | -0.0814 |
| RRIRDRPPRLPRPRPRPCNHPRP | -0.218 |
| RRIRHRPPRLPRPRPRPGPIPRP | -0.133 |
| RRIRARPPRLPRPRPRPAGNPRP | 0.129 |
| RRIRMRPPRLPRPRPRPESAPRP | 2.73 |
| RRIRLRPPRLPRPRPRPCGVPRP | -0.339 |
| RRIRVRPPRLPRPRPRPYRSPRP | -1.55 |
| RRIRSRPPRLPRPRPRPVSKPRP | 0.236 |
| RRIRWRPPRLPRPRPRPSFAPRP | 0.28 |
| RRIRGRPPRLPRPRPRPPLLPRP | 0.633 |
| RRIRFRPPRLPRPRPRPHFCPRP | -1.02 |
| RRIRSRPPRLPRPRPRPWRGPRP | 0.59 |
| RRIRKRPPRLPRPRPRPRRQPRP | 0.333 |
| RRIRPRPPRLPRPRPRPTPVPRP | 0.379 |
| RRIRNRPPRLPRPRPRPKKIPRP | -0.187 |
| RRIRHRPPRLPRPRPRPNWVPRP | -0.126 |
| RRIRCRPPRLPRPRPRPPGQPRP | 0.494 |
| RRIRPRPPRLPRPRPRPPPYPRP | 0.0995 |
| RRIRPRPPRLPRPRPRPEQNPRP | -0.199 |
| RRIRHRPPRLPRPRPRPAGGPRP | -0.131 |
| RRIRMRPPRLPRPRPRPSLPPRP | -0.0418 |

| Sequence | shrunken log2 fold change |
| --- | --- |
| RRIRLRPPRLPRPRPRPYNMPRP | -0.859 |
| RRIRARPPRLPRPRPRPVLIPRP | -0.179 |
| RRIRPRPPRLPRPRPRPKGAPRP | 0.21 |
| RRIRVRPPRLPRPRPRPPEAPRP | -0.0358 |
| RRIRFRPPRLPRPRPRPSTPPRP | -0.463 |
| RRIRNRPPRLPRPRPRPHHYPRP | -0.619 |
| RRIRTRPPRLPRPRPRPMEDPRP | -0.00968 |
| RRIRARPPRLPRPRPRPHLHPRP | 0.0371 |
| RRIRRRPPRLPRPRPRPLNPPRP | -0.00196 |
| RRIRRRPPRLPRPRPRPDCNPRP | 0.311 |
| RRIRSRPPRLPRPRPRPPMCPRP | 0.00128 |
| RRIRPRPPRLPRPRPRPKCMPRP | -0.222 |
| RRIRVRPPRLPRPRPRPDPEPRP | -0.0984 |
| RRIRRRPPRLPRPRPRPSLNPRP | 0.00555 |
| RRIRTRPPRLPRPRPRPCWIPRP | -0.1 |
| RRIRTRPPRLPRPRPRPNLAPRP | 0.0471 |
| RRIRGRPPRLPRPRPRPVVYPRP | 0.268 |
| RRIRSRPPRLPRPRPRPLVCPRP | 0.0734 |
| RRIRVRPPRLPRPRPRPGDEPRP | 0.122 |
| RRIRSRPPRLPRPRPRPYREPRP | 0.0503 |
| RRIRSRPPRLPRPRPRPIHQPRP | -0.114 |
| RRIRLRPPRLPRPRPRPLQVPRP | 0.109 |
| RRIRTRPPRLPRPRPRPWDYPRP | -0.139 |
| RRIRTRPPRLPRPRPRPYRKPRP | -0.0329 |
| RRIRERPPRLPRPRPRPSTYPRP | -0.263 |
